What was measured:
[1] = molecular target: T1, mouse CTGF (Abbexa) (mouse, UniProt P29268 26-348, limits assumed); test: SPR (Biacore)
T1 construct: also called Murine CTGF; mCTGF
T1 sequence (looked up): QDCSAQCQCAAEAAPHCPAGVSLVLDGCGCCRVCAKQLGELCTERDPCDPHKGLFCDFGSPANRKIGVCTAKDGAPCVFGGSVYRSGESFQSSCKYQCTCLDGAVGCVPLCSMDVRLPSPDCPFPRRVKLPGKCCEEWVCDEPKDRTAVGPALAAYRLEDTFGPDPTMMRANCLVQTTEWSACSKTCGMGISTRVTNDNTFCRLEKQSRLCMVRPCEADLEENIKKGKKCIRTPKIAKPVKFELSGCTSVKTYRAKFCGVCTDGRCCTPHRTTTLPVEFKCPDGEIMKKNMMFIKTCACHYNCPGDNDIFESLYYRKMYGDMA
In short: (§1)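 Lipocalin muteins injected at 25 °C over CTGF either Fc-tagged and captured by anti-human IgG-Fc (0.25-2.5 μg/mL in HBS-EP+, 180 s) or amine-coupled directly to a CM5 chip. Association 180 s, dissociation 900-3600 s, flow 30 μL/min.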

[2] = molecular target: T2, cynomolgus CTGF (cynomolgus, UniProt I7G525 27-349); test: SPR (Biacore)
T2 construct: also called cyCTGF
T2 sequence: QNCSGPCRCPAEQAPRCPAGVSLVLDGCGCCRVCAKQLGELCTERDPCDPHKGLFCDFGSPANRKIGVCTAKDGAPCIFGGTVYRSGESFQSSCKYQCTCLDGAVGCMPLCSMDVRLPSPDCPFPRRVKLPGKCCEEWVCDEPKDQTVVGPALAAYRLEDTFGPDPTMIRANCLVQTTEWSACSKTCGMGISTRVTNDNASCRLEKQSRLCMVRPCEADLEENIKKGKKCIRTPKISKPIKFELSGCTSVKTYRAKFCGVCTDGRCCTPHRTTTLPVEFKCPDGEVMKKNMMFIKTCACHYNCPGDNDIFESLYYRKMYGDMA
In short: as §1

B1: lipocalin mutein of SEQ ID NO: 25 (designed binder)
chain: QDSTSDLIPAPPLSKVPLQQNFQDNQFHGKWYVVGMAGNFRLREDKDPSKMGATIYELKEDKSYNVTQVQFDDKKCLYVIETFVPGSQPGEFTLGAIKSFPGFTSQLVRVVSTNYNQHAMVFFKKVYQNREVFWITLYGRTKELTSELKENFIRFSKSLGLPENHIVFPVPIDQCIDGSAWSHPQFEK
notes: Parent hNGAL mutein; also called hNGAL mutein
binding result [1]: no binding (tested: typically 0.43-2000 nM)

B2: lipocalin mutein of SEQ ID NO: 15 (designed binder)
chain: QDSTSDLIPAPPLSKVPLQQNFQDNQFQGKWYVVGLAGNAILREDKQPAKMFATIYELKEDKSYDVTSVRFEAKSCKYTIKTFVPGSQPGEFTAGYIKSAPGQTSTLVRVVSTNYNQHAMVFFKHVTQNREIFVITLYGRTKELTSELKENFIRFSKSLGLPENHIVFPVPIDQCIDG
notes: also called hNGAL mutein; not shown: C-terminal His-tag
Kd [2]: 707 pM | koff [2]: 7.57e-05 s⁻¹ | kon [2]: 107000 M⁻¹ s⁻¹ | Kd [1]: 349 pM | koff [1]: 4.51e-05 s⁻¹ | kon [1]: 129000 M⁻¹ s⁻¹

B3: lipocalin mutein of SEQ ID NO: 29 (designed binder)
chain: QDSTSDLIPAPPLSKVPLQQNFQDNQFHGKWYVVGWAGNIKLREDKDPFKMSATIYELKEDKSYNVTEVVFEQKKCHYIIKTFVPGSQPGEFTLGDIKSPPGETSSLVRVVSTNYNQHAMVFFKKVFQNREFFWITLYGRTKELTSELKENFIRFSKSLGLPENHIVFPVPIDQCIDGSAWSHPQFEK
notes: as for B1
binding result [1]: no binding (tested: typically 0.43-2000 nM)

B4: lipocalin mutein of SEQ ID NO: 9 (designed binder)
chain: QDSTSDLIPAPPLSKVPLQQNFQDNQFHGKWYVVGLAGNKILRIDKQPAKMFATIYELKEDKSYDVTSVRFEARSCSYTIKTFVPGSQPGEFTAGNIKSAPGQTSTLVRVVSTNYNQHAMVFFKHVSQNRETFVITLYGRTKELTSELKENFIRFSKSLGLPENHIVFPVPIDQCIDGSAWSHPQFEK
notes: as for B1
Kd [1]: 6260 pM | koff [1]: 0.000832 s⁻¹ | kon [1]: 133000 M⁻¹ s⁻¹

— patent publication US20240228562A1 (Pieris, published 2024)
